How the values were obtained:
Assay in all cases: co-IP; anti-ARMS (mouse, MA1-90667) coupled MagPlex microspheres incubated overnight with cleared RIPA lysates of transfected HEK293 cells; bound TRPV1, ARMS or AKAP79 detected with rabbit antibodies and anti-rabbit-PE on FLEXMAP 3D (MFI); interaction ratio = TRPV1 MFI divided by ARMS MFI; cells untreated or treated with forskolin 50 uM + IBMX 100 uM, H89 10 uM or BPKDi 1 uM
[1] = biological target: ARMS0 (ARMS with all potential PKA sites mutated to alanine) (rat) (UniProt Q9EQG6)
[2] = biological target: ARMS_(S882) (ARMS mutant keeping only the PKA site S882) (rat) (UniProt Q9EQG6)
[3] = biological target: ARMS_(T903) (ARMS mutant keeping only the PKA site T903) (rat) (UniProt Q9EQG6)
[4] = biological target: ARMS_(S1439/40) (ARMS mutant keeping only the PKA site S1439/40) (rat) (UniProt Q9EQG6)
[5] = biological target: ARMS_(S1251/52) (ARMS mutant keeping only the PKA site S1251/52) (rat) (UniProt Q9EQG6)
[6] = biological target: Ankyrin-rich membrane spanning protein (ARMS), wild type (rat) (UniProt Q9EQG6)
[7] = biological target: ARMS_(S1526/27) (ARMS mutant keeping only the PKA site S1526/27) (rat) (UniProt Q9EQG6)

TRPV1 MFI / ARMS MFI in the ARMS precipitate, cells treated with BPKDi [1]: 2% | TRPV1 MFI / ARMS MFI in the ARMS precipitate, cells treated with H89 [1]: 4% | TRPV1 MFI / ARMS MFI in the ARMS precipitate, cells treated with forskolin + IBMX [1]: 6% | TRPV1 MFI / ARMS MFI in the ARMS precipitate, untreated cells [1]: 5% | TRPV1 MFI / ARMS MFI in the ARMS precipitate, cells treated with BPKDi [2]: 4% | TRPV1 MFI / ARMS MFI in the ARMS precipitate, cells treated with H89 [2]: 5% | TRPV1 MFI / ARMS MFI in the ARMS precipitate, cells treated with forskolin + IBMX [2]: 7% | TRPV1 MFI / ARMS MFI in the ARMS precipitate, untreated cells [2]: 10% | TRPV1 MFI / ARMS MFI in the ARMS precipitate, cells treated with BPKDi [3]: 4% | TRPV1 MFI / ARMS MFI in the ARMS precipitate, cells treated with H89 [3]: 7% | TRPV1 MFI / ARMS MFI in the ARMS precipitate, cells treated with forskolin + IBMX [3]: 9% | TRPV1 MFI / ARMS MFI in the ARMS precipitate, untreated cells [3]: 12% | TRPV1 MFI / ARMS MFI in the ARMS precipitate, cells treated with BPKDi [4]: 3% | TRPV1 MFI / ARMS MFI in the ARMS precipitate, cells treated with H89 [4]: 4% | TRPV1 MFI / ARMS MFI in the ARMS precipitate, cells treated with forskolin + IBMX [4]: 6% | TRPV1 MFI / ARMS MFI in the ARMS precipitate, untreated cells [4]: 7% | TRPV1 MFI / ARMS MFI in the ARMS precipitate, cells treated with BPKDi [5]: 5% | TRPV1 MFI / ARMS MFI in the ARMS precipitate, cells treated with H89 [5]: 6% | TRPV1 MFI / ARMS MFI in the ARMS precipitate, cells treated with forskolin + IBMX [5]: 18% | TRPV1 MFI / ARMS MFI in the ARMS precipitate, untreated cells [5]: 15% | TRPV1 MFI / ARMS MFI in the ARMS precipitate, cells treated with BPKDi [6]: 3% | TRPV1 MFI / ARMS MFI in the ARMS precipitate, cells treated with H89 [6]: 4% | TRPV1 MFI / ARMS MFI in the ARMS precipitate, cells treated with forskolin + IBMX [6]: 9% | TRPV1 MFI / ARMS MFI in the ARMS precipitate, untreated cells [6]: 9% | TRPV1 MFI / ARMS MFI in the ARMS precipitate, cells treated with BPKDi [7]: 25% | TRPV1 MFI / ARMS MFI in the ARMS precipitate, cells treated with H89 [7]: 36% | TRPV1 MFI / ARMS MFI in the ARMS precipitate, cells treated with forskolin + IBMX [7]: 63% | TRPV1 MFI / ARMS MFI in the ARMS precipitate, untreated cells [7]: 60%
Substance: transient receptor potential vanilloid 1 (TRPV1)-YFP (from UniProt O35433 1-838)

Source: paper PMC9680306
